Data taken from patent publication US20230390362A1, “USE OF TRIGONAL AGONIST HAVING ACTIVITIES TO ALL OF GLUCAGON, GLP-1, AND GIP RECEPTORS IN TREATMENT OF SEQUELAE FOLLOWING RESPIRATORY INFECTIOUS DISEASES” (HANMI PHARM. CO., LTD., priority 2020, published 2023).
Positions of bridges follow the written chain, without caps; N, C: chain ends. Non-standard residues stand in square brackets, D forms with d. No end group written: not given here. *: point of attachment. Acetyl(2-(4-imidazolyl)) = O=C(Cc1c[nH]cn1)*; Aib = CC(C)(N)C(=O)O

T1: human GIP receptor (human, UniProt P48546 22-466)
T1 sequence (looked up): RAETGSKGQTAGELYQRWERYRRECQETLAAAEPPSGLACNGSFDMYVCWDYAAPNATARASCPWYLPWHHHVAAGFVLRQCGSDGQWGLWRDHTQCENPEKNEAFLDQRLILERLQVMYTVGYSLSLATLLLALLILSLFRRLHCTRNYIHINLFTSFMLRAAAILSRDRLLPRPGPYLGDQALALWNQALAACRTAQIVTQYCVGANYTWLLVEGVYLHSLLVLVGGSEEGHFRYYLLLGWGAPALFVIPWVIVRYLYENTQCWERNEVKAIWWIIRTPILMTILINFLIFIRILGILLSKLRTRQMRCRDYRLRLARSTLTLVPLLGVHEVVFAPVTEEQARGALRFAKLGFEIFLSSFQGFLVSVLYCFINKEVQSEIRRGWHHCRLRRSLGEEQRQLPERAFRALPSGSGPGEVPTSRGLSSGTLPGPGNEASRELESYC


Assays:
Test in all cases: cell-based or functional assay
human GIP receptor = target: T1, human GIP receptor
human GCG receptor = human GCG receptor (human, UniProt P47871 26-477)
human GLP-1 receptor = human GLP-1 receptor (human, UniProt P43220 24-463)

Chain of human GCG receptor (P47871 26-477): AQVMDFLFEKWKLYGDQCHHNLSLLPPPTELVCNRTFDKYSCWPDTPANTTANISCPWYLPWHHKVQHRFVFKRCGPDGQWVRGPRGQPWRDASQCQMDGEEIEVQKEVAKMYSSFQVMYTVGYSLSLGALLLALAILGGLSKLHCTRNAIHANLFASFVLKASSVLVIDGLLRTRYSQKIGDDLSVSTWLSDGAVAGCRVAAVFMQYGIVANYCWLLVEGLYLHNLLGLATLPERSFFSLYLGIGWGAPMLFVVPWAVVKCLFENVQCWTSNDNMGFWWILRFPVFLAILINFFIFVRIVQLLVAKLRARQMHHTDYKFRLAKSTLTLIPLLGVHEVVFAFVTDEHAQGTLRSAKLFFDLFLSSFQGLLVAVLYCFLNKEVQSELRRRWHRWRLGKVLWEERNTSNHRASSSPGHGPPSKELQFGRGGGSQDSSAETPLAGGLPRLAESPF

Row | Binder | In vitro activity relative to native peptide (%), vs. GIP (cAMP EC50) (human GIP receptor) | In vitro activity relative to native peptide (%), vs. Glucagon (cAMP EC50) (human GCG receptor) | In vitro activity relative to native peptide (%), vs. GLP-1 (cAMP EC50) (human GLP-1 receptor)
1 | H[Aib]QGTFTSDVSSYLLGQAAKQFIAWLVKGGGPSSGAPPPSC [trigonal agonist of SEQ ID NO: 3] | < 0.1% | < 0.1% | 1.8%
2 | H[Aib]QGTFTSDYSKYLDERACQDFVQWLLDQGGPSSGAPPPS [trigonal agonist of SEQ ID NO: 27] | 0.9% | 0.8% | 83.1%
3 | H[Aib]QGTFTSDCSKYLDSRAAQDFVQWLLDGGPSSGAPPPS [trigonal agonist of SEQ ID NO: 26] | < 0.1% | 0.2% | 64.5%
4 | Y[Aib]QGTFTSDYSKYLDECRAKEFVQWLLAQKGKKNDWKHNIT (bridge 16-20) [trigonal agonist of SEQ ID NO: 23] | < 0.1% | 9.3% | 4.01%
5 | Y[Aib]QGTFTSDYSKCLDEKRAKEFVQWLLDHHPSSGQPPPS (bridge 16-20) [trigonal agonist of SEQ ID NO: 22] | 59.7% | 140% | 20.1%
6 | H[Aib]QGTFTSDYSKYLDEKAAKEFVQWLLNTC (bridge 16-20) [trigonal agonist of SEQ ID NO: 29] | < 0.1% | 6% | 38.5%
7 | H[Aib]QGTFTSDYSKYLDEKACKDFVQWLLDGGPSSGAPPPS (bridge 16-20) [trigonal agonist of SEQ ID NO: 32] | 8.8% | 1.7% | 151%
8 | Y[Aib]QGTFTSDYSKYLDECRAKEFVQWLKNGGPSSGAPPPS (bridge 16-20) [trigonal agonist of SEQ ID NO: 24] | < 0.1% | 9.3% | 41.2%
9 | H[Aib]QGTFTSDYSIAMDEIHQKDFVNWLLAQKC (bridge 16-20) [trigonal agonist of SEQ ID NO: 33] | 10.4% | < 0.1% | 24.5%
10 | Y[Aib]QGTFTSDYSKYLDECRAKEFVQWLLDHHPSSGQPPPS (bridge 16-20) [trigonal agonist of SEQ ID NO: 21] | 22.7% | 267% | 17.8%
11 | H[Aib]QGTFTSDCSKYLDERAAQDFVQWLLDGGPSSGAPPPS [trigonal agonist of SEQ ID NO: 25] | < 0.1% | 0.1% | 82.6%
12 | H[Aib]QGTFTSDYSKYLDEKRAQEFVCWLLAQKGKKNDWKHNIT [trigonal agonist of SEQ ID NO: 28] | < 0.1% | 1.6% | 17.2%
13 | H[Aib]QGTFTSDYSKYLDEKACKEFVQWLLAQ (bridge 16-20) [trigonal agonist of SEQ ID NO: 31] | 2.4% | 2.2% | 135%
14 | {Acetyl(2-(4-imidazolyl))}-GQGTFTSDLSIQYEEEAQQDFVEWLKDTGPSSGAPPPSHG [trigonal agonist of SEQ ID NO: 20] | < 0.1% | < 0.1% | < 0.1%
15 | H[Aib]QGTFTSDYSKYLDEKAQKEFVQWLLDTC (bridge 16-20) [trigonal agonist of SEQ ID NO: 30] | 0.8% | 0.7% | 142%
